Measured values reported in patent publication US20250084174A1 (AstraZeneca / MedImmune, published 2025).
Numbering of substitutions follows the chain as printed. Like-named read-outs stand apart in the source and are kept apart here. Each block holds one binder with its values, some of them ahead of it.

Columns and labels:
CCR5 [1] = biological target: T1, CCR5 (UniProt P51681 1-352, limits assumed); test: binding to cells expressing CCR5, fluorescence counts (FL1 Counts) against Log M
T1 construct: whole, on cells; The cell line is not described
T1 sequence (P51681 whole entry): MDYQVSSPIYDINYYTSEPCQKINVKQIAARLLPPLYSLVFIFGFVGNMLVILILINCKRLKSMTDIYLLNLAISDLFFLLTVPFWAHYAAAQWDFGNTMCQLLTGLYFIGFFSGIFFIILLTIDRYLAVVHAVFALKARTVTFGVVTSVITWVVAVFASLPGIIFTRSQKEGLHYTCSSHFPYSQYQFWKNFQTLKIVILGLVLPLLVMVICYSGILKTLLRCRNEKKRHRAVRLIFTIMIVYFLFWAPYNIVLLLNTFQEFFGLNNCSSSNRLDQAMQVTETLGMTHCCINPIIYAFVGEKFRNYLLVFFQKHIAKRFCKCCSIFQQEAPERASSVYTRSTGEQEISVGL

CCR8 [2] = biological target: T2, CCR8 (UniProt P51685 1-355, limits assumed); test: binding to cells expressing CCR8, fluorescence counts (FL1 Counts) against Log M
T2 construct: whole, on cells; The cell line is not described
T2 sequence (P51685 whole entry): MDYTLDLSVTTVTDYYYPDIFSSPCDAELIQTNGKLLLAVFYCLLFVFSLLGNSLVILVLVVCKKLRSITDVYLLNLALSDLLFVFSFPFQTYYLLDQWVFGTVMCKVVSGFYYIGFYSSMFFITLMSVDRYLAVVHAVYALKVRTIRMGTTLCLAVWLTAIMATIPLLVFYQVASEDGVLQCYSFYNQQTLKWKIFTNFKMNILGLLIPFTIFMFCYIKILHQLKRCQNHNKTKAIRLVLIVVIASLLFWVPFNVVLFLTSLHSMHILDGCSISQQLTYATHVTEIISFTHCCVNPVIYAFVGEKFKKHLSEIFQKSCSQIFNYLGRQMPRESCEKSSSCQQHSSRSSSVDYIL

CXCR1 = biological target: T3, CXCR1 (UniProt P25024 1-350, limits assumed); test: binding to cells expressing CXCR1, fluorescence counts (FL1 Counts) against Log M
T3 construct: whole, on cells; The cell line is not described
T3 sequence (looked up): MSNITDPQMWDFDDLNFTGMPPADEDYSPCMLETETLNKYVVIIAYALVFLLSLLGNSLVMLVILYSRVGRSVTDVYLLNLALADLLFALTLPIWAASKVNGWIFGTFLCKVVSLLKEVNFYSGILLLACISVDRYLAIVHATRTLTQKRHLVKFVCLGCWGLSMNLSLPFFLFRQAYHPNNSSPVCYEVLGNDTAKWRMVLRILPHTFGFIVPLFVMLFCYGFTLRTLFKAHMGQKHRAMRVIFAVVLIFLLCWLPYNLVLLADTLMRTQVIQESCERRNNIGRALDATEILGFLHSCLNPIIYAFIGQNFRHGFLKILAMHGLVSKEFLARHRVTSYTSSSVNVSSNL

CXCR2 = biological target: T4, CXCR2 (UniProt P25025 1-360, limits assumed); test: binding to cells expressing CXCR2, fluorescence counts (FL1 Counts) against Log M
T4 construct: whole, on cells; The cell line is not described
T4 sequence (looked up): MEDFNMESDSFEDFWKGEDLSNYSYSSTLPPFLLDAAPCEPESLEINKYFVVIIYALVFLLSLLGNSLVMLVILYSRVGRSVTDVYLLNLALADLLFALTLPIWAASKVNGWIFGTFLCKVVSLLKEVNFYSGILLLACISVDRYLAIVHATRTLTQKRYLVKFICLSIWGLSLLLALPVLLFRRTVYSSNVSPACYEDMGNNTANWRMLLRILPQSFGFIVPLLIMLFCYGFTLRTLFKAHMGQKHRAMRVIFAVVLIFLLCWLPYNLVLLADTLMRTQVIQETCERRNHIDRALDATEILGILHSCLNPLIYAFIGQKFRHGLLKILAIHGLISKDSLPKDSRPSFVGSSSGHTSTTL

cynomolgus CCR9 [3] = biological target: T5, cynomolgus CCR9 (cynomolgus, UniProt Q0H741 1-369); test: binding to HEK cells expressing cynomolgus CCR9, fluorescence counts (FL1 Counts) against Log M
T5 construct: Overexpressed on HEK cells, or endogenous on cynomolgus PBMC; also called cynomolgus CCR9A; Cyno HEK
T5 sequence: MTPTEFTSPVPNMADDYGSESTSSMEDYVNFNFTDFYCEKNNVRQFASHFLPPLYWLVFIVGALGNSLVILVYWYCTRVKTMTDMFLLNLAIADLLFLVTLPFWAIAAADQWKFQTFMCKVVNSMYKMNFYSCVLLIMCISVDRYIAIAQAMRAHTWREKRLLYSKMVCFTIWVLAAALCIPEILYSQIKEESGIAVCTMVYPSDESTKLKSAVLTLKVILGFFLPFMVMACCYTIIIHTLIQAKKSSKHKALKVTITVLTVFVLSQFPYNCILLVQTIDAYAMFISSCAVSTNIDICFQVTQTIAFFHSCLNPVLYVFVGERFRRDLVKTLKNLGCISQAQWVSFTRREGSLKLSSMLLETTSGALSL

rat CCR9 [4] = biological target: T6, rat CCR9 (rat, UniProt Q8CH33 1-369); test: binding to HEK cells overexpressing rat CCR9, MFI against [Ab] ug/ml
T6 construct: Overexpressed on HEK cells; also called Rat HEK
T6 sequence: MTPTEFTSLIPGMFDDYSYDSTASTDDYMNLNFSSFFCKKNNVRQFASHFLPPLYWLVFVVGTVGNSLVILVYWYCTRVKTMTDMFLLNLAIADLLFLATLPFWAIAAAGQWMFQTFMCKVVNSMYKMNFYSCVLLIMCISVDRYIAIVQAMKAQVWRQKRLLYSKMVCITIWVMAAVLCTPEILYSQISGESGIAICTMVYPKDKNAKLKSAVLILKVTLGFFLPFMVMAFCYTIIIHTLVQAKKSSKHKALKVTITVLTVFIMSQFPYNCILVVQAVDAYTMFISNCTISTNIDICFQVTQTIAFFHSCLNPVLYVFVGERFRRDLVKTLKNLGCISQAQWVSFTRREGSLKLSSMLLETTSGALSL
Method: (§1) The antibody AB1020243 (hybridoma mIgG) was also tested for binding to different forms of CCR9. Briefly, test antibody was diluted to a concentration of 60 μg/mL in assay buffer containing Hanks Balanced Salt solution (Sigma HB264) plus 0.1% Bovine Serum Albumin (Sigma A9576). Antibody was titrated in duplicate using single fold titrations over 24 points on a 384 black clear bottomed, non-binding microplate (Corning® NBS™ 3655) so that the final volume of test antibody was 10 μL per well. […]
(§2) Transfected HEK CCR9 overexpressing cell lines or un-transfected parental control cells were suspended in assay buffer at a concentration of 1×10⁶ cells per ml, and 10 μL of cells were dispensed to the assay plate containing test antibody and secondary antibody using a Multidrop dispenser (Thermo Scientific). Assay plates were incubated overnight at 4° C. and were read on a mirrorball® (laser scanning fluorescence cytometer; TTP-Labtech) using excitation at 488 nm and emission using the FL4channel (667-685 nm). Data was plotted in GraphPad Prism version 8.0.0 for Windows (GraphPad Software, San Diego, California USA) and expressed as Log (mg/mL antibody) v's Fluorescence (FL4) counts.

mouse CCR9 [5] = biological target: T7, mouse CCR9 (mouse, UniProt Q9WUT7 1-369); test: binding to HEK cells overexpressing mouse CCR9, MFI against [Ab] ug/ml
T7 construct: whole, on cells; Overexpressed on HEK cells; also called mCCR9; Mouse HEK
T7 sequence (looked up): T6 sequence with T2M, F6L, Y17F, V60I, V64L, I189V, I197T, C272S, T283A
Method: as §1, §2

human CCR9A [6] = biological target: T8, human CCR9A (human, UniProt P51686 1-369); test: binding to HEK cells overexpressing human CCR9A, MFI against [Ab] ug/ml; Parental HEK stays at about 0
T8 construct: Overexpressed on HEK cells; also called Hu A HEK; hCCR9 isoform A
T8 sequence: T5 sequence with E5D, V10I, V197I, M228V, S288N
Method: as §1, §2

human CCR9B [7] = biological target: T9, human CCR9B (human, UniProt P51686 13-369); test: binding to HEK cells overexpressing human CCR9B, MFI against [Ab] ug/ml; Parental HEK stays at about 0
T9 construct: Overexpressed on HEK cells; also called Hu B HEK; hCCR9 isoform B
T9 sequence: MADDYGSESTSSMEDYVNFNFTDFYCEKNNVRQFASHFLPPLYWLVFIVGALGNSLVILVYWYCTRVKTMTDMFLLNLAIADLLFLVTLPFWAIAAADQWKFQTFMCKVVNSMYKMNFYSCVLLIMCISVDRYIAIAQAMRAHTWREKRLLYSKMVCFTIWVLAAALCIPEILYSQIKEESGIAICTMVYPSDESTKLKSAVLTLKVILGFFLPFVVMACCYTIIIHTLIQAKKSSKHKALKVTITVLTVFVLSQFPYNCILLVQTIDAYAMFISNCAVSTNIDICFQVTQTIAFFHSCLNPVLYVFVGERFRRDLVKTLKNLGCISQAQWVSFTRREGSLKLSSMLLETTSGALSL
Method: as §1, §2

cynomolgus CCR9 [8] = biological target: T5, cynomolgus CCR9; test: cell-based or functional assay
mouse CCR9 [9] = biological target: T7, mouse CCR9; test: cell binding by the methods of Example 4
rat CCR9 [10] = biological target: T6, rat CCR9; test: cell binding by the methods of Example 4
CCR5 [11] = biological target: T1, CCR5; test: binding to cells expressing CCR5, fluorescence counts (FL1 Counts) against Log M; remark: listed apart in the source
CCR8 [12] = biological target: T2, CCR8; test: binding to cells expressing CCR8, fluorescence counts (FL1 Counts) against Log M; remark: listed apart in the source
human CCR9A [13] = biological target: T8, human CCR9A; test: binding to cells expressing human CCR9A, fluorescence counts (FL1 Counts) against Log M
human CCR9B [14] = biological target: T9, human CCR9B; test: binding to cells expressing human CCR9B, fluorescence counts (FL1 Counts) against Log M

EC50 (read off the curve) (cynomolgus CCR9 [3]): ~0.6 nM
B1: AB1020243 afuc (chimeric parent antibody, afucosylated) (antibody, V domains shown)
VH: EVQLQQSGTVLARPGASVKMSCKASGYTFTSYWMHWVKQRPGQGLEWIGVIYPGNSDTRYNQKFKGKAKLTAVTSATTAYMELSSLTNEDSAVYYCTRDYYSNYVYYYAMDYWGQGTSVTVSS
VL: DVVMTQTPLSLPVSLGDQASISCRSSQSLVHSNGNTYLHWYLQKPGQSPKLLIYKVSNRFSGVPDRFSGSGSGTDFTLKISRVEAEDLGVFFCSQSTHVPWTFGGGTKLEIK
modifications: afucosylated form; in the LigandTracer assay DyLight 650 Maleimide on an engineered cysteine residue in the CH2 region
notes: Mouse variable domains; Called chimeric, with human IgG1 format stated for the LigandTracer assay; also called chimeric AB1020243; parent AB1020243
binding result (CCR5 [1]): no binding (tested: Log M about -6.5 (about 3e-7 M))
binding result (CCR8 [2]): no binding (tested: Log M about -6.5 (about 3e-7 M))
binding result (CXCR1): no binding (tested: Log M about -6.9 (about 1e-7 M))
binding result (CXCR2): no binding (tested: Log M about -6.9 (about 1e-7 M))

binding result (rat CCR9 [4]): no binding (tested: 10 ug/ml)
binding result (mouse CCR9 [5]): no binding (tested: 10 ug/ml)
binding result (human CCR9A [6]): binds
binding result (human CCR9B [7]): binds
B2: AB1020243 (hybridoma mIgG) (antibody, V domains shown)
VH: B1 VH
VL: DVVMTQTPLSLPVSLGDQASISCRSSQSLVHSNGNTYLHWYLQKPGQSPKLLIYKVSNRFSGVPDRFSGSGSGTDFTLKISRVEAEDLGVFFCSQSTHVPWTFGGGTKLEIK
notes: Mouse IgG from the hybridoma; also called clone ZY10O1-A02

Further lines, the binder ahead of its results:

B3: AB243LO0326 (antibody, V domains shown)
VH: QVQLVQSGAEVKKPGASVKVSCKASGYTFTSYWMHWVRQAPGQGLEWIGVIYPGNSDTRYNQKFKGRVTITRDTSASTAYMELSSLRSEDTAVYYCTRDYYSNYVYYYAMDYWGQGTTVTVSS
VL: DIVMTQTPLSLPVTPGEPASISCRSSQSLVHPNRNTYLHWYLQKPGQSPQLLIYKVSNRFSGVPDRFSGSGSGTDFTLKISRVEAEDVGVYYCSQSTHVPWTFGQGTKLEIK
modifications: afucosylated form; in the LigandTracer assay DyLight 650 Maleimide on an engineered cysteine residue in the CH2 region
notes: Full chains are not tied to the tested lot
EC50, killing of cynomolgus CD4+CCR9+ PBMC (cynomolgus CCR9 [8]): 0.03 nM
binding result (mouse CCR9 [9]): no binding
binding result (rat CCR9 [10]): no binding
binding result (CCR5 [11]): no binding (tested: Log M about -6.9 (about 1e-7 M))
binding result (CCR8 [12]): no binding (tested: Log M about -6.9 (about 1e-7 M))
binding result (CXCR1): no binding (tested: Log M about -6.9 (about 1e-7 M))
binding result (CXCR2): no binding (tested: Log M about -6.9 (about 1e-7 M))
binding result (human CCR9A [13]): binds
binding result (human CCR9B [14]): binds

B4: AB243LO0331 (antibody, IgG1, V domains shown)
VH: B3 VH
VL: B3 VL with P32S, R34T
modifications: afucosylated form
binding result (mouse CCR9 [9]): no binding
binding result (rat CCR9 [10]): no binding
